Bridge positions count the residues as written; N and C are the ends.
T1: GR (h) (human), P04150
T1 chain: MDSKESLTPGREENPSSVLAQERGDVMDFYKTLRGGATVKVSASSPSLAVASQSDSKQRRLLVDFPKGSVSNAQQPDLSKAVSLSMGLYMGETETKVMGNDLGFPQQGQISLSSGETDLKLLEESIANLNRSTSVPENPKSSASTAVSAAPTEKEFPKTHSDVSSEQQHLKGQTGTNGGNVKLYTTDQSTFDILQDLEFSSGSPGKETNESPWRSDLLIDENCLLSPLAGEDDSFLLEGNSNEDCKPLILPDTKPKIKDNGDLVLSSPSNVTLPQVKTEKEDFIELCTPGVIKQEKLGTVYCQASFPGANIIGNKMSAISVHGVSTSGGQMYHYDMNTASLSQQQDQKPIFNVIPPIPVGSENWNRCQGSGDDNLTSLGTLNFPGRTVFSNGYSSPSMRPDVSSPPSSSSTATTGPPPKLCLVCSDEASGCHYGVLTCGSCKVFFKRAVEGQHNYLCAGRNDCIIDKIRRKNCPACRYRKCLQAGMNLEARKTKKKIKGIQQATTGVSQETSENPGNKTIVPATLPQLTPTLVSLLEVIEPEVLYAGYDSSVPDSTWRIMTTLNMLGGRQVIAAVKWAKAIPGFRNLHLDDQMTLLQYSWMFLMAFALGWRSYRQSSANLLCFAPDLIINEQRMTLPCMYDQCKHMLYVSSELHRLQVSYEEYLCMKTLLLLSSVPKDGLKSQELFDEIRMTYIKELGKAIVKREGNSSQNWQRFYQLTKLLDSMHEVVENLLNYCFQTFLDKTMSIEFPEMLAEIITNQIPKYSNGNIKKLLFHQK

T2: DPP3, Q9NY33
T2 chain: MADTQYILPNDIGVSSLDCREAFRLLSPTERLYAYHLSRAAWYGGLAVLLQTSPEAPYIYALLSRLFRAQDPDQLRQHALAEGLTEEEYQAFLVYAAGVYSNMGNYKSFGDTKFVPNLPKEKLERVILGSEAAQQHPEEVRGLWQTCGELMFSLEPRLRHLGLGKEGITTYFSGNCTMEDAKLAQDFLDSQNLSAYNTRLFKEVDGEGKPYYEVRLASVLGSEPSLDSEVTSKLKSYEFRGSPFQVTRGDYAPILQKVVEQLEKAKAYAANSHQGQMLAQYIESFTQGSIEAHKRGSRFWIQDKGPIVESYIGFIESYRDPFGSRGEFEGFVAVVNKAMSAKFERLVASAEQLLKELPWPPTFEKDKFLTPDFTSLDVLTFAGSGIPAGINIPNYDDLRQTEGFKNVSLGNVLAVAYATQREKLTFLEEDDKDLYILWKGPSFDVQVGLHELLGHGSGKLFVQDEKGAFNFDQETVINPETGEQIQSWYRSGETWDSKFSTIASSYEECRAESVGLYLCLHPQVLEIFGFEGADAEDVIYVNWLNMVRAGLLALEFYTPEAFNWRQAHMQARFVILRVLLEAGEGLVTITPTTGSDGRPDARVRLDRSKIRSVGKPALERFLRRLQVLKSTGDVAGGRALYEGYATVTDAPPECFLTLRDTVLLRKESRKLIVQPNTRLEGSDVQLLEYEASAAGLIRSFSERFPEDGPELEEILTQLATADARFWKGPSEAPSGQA


Tests used:
GR (h) (human), P04150 = molecular target: T1, GR (h) (human), P04150; experiment: radioligand displacement (agonist radioligand), 10 µM; conditions: remark: other sources report otherwise
DPP3, Q9NY33 = molecular target: T2, DPP3, Q9NY33; experiment: cell-based or functional assay

Row | Binder | % Inhibition of Specific Binding (GR (h) (human), P04150) [%] | Percentage inhibition (%) at 1 µM (DPP3, Q9NY33) [%] | Percentage inhibition (%) at 10 µM (DPP3, Q9NY33) [%]
1 | Hex-CPPTQFCD-NH2 (bridge 1-7; not fully specified (bridges); printed as Hex-[Cys(tMeBn(DOTA-PP))-Pro-Pro-Thr-Gln-Phe-Cys]-Asp-NH2) [Hex-[Cys(tMeBn(DOTA-PP))-Pro-Pro-Thr-Gln-Phe-Cys]-Asp-NH2] | -2 |  | 
2 | Hex-CPPTQFC-OH (bridge 1-7; not fully specified (bridges); printed as Hex-[Cys(tMeBn(DOTA-AET))-Pro-Pro-Thr-Gln-Phe-Cys]-OH) [Hex-[Cys(tMeBn(DOTA-AET))-Pro-Pro-Thr-Gln-Phe-Cys]-OH] | 0 | 2 | -1
